Assay results as given in patent US20250186541A1, “DLL3 TARGETING PEPTIDES AND CONSTRUCTS THEREOF” (MARIANA ONCOLOGY INC., priority 2023, published 2025).
Numbered stars: 1 amine (or outer) side, 2 acyl side, 3 side chain; on linkers, the order of the positions; unused ones are H or OH. Bridge positions count the residues as written; N and C are the ends. Square brackets hold non-standard residues; d marks the D form. * marks the point of attachment. Ala(piperidin-4-yl) = O=C([C@H](CC1CCN([*:3])CC1)N[*:1])[*:2]; DOTA = O=C(O)CN1CCN(CC(=O)O)CCN(CC(=O)*)CCN(CC(=O)O)CC1; Phe(4-CF3) = N[C@@H](Cc1ccc(C(F)(F)F)cc1)C(=O)O; Trp(5-F) = N[C@@H](Cc1c[nH]c2ccc(F)cc12)C(=O)O; Trp(7-Me) = Cc1cccc2c(C[C@H](N)C(=O)O)c[nH]c12; 1Nal = N[C@@H](Cc1cccc2ccccc12)C(=O)O; NMeChg = CN[C@H](C(=O)O)C1CCCCC1; αMeP = C[C@@]1(C(=O)O)CCCN1; PAF = not defined here

Tests used:
[1] = molecular target: Biotinylated human DLL3 (human) (UniProt Q9NYJ7); assay: SPR, biotin-hDLL3 on SA chip
[2] = molecular target: T1, Biotinylated human DLL3 (human, UniProt Q9NYJ7 27-492, biotinylated (site not stated)); assay: SPR, biotin-hDLL3 on SA chip; Cpd 56, a separate compound
T1 construct: also called Delta-like ligand 3; Delta Like Canonical Notch Ligand 3
T1 sequence (looked up): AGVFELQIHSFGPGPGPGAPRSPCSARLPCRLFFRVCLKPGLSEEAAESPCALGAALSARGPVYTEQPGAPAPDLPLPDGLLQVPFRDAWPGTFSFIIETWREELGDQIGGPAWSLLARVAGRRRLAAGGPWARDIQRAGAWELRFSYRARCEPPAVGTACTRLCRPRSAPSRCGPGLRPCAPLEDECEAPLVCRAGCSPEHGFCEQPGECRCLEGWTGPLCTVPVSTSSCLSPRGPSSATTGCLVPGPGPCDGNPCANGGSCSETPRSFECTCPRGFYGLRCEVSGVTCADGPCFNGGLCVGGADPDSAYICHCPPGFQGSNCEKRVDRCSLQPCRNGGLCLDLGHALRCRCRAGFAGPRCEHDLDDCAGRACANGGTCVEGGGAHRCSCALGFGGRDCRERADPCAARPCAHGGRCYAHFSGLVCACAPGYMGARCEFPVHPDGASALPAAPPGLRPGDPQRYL

[3] = molecular target: T1, Biotinylated human DLL3; assay: SPR, biotin-hDLL3 on SA chip; Cpd 58, a separate compound
[4] = molecular target: T1, Biotinylated human DLL3; assay: SPR, biotin-hDLL3 on SA chip; Cpd 59, a separate compound

B1: Cpd #188 (peptide)
peptide: Ac-[Ala(piperidin-4-yl)]SDC[1Nal][NMeChg][PAF](DOTA)[Trp(7-Me)]NC[αMeP]FD-NH2
modifications: disulfide 4-10; reading uncertain; also: printed as Ac-[3-(4-piperidinyl)-Ala]-S-D-C(3)-(1Nal)-(NMe-Chg)-[PAF(DOTA)]-(7Me-W)-N-C(3)-(aMe-P)-F-D-CONH2; (3)=disulfide
[1]
  Kd: > 30 nM

B2: Cpd #56 (peptide)
peptide: Ac-MSDC[1Nal]LQWNCPFD[dK](DOTA)-NH2
modifications: disulfide 4-10
SMILES: CSCC[C@H](NC(C)=O)C(=O)N[C@@H](CO)C(=O)N[C@@H](CC(=O)O)C(=O)N[C@H]1CSSC[C@@H](C(=O)N2CCC[C@H]2C(=O)N[C@@H](Cc2ccccc2)C(=O)N[C@@H](CC(=O)O)C(=O)N[C@H](CCCCNC(=O)CN2CCN(CC(=O)O)CCN(CC(=O)O)CCN(CC(=O)O)CC2)C(N)=O)NC(=O)[C@H](CC(N)=O)NC(=O)[C@H](Cc2c[nH]c3ccccc23)NC(=O)[C@H](CCC(N)=O)NC(=O)[C@H](CC(C)C)NC(=O)[C@H](Cc2cccc3ccccc23)NC1=O
[2]
  Kd: 1.13 nM

## Ac-MSDC[Trp(5-F)]LQWNCPFD[dK](DOTA)-NH2 (disulfide 4-10) [Cpd #58]
[3]
  Kd: 42 nM

B3: Cpd #59 (peptide)
peptide: Ac-MSDC[Phe(4-CF3)]LQWNCPFD[dK](DOTA)-NH2
modifications: disulfide 4-10
SMILES: CSCC[C@H](NC(C)=O)C(=O)N[C@@H](CO)C(=O)N[C@@H](CC(=O)O)C(=O)N[C@H]1CSSC[C@@H](C(=O)N2CCC[C@H]2C(=O)N[C@@H](Cc2ccccc2)C(=O)N[C@@H](CC(=O)O)C(=O)N[C@H](CCCCNC(=O)CN2CCN(CC(=O)O)CCN(CC(=O)O)CCN(CC(=O)O)CC2)C(N)=O)NC(=O)[C@H](CC(N)=O)NC(=O)[C@H](Cc2c[nH]c3ccccc23)NC(=O)[C@H](CCC(N)=O)NC(=O)[C@H](CC(C)C)NC(=O)[C@H](Cc2ccc(C(F)(F)F)cc2)NC1=O
[4]
  Kd: 149 nM
